Test results from patent US11732048B2, “Anti-axl antagonistic antibodies” (BERGEN TEKNOLOGIOVERFØRING AS, priority 2016, dated 2023).
Where two headings read alike, the source gives them in different places.

What was measured:
[1] = target: T1, human Axl (rhAxl-Fc chimera) (Homo sapiens, UniProt P30530); assay: Biacore kinetic analysis (surface plasmon resonance) on immobilised rhAxl-Fc; assay type: binding
T1 construct: Soluble recombinant antigens corresponding to the extracellular domains of members of the human TAM receptor family; Fc; purchased R&D Systems 154-AL
Description: Kinetic analysis of murine MAb 10G5 interacting with rhAxl immobilized on the surface of the Biacore sensor chip. Overlay plots of sensograms for different antibody concentrations (0.3-166.7 nM for murine 10G5) are shown. The precise kinetic analysis was performed using BIA evaluation software and curve fitting according to 1:1 Langmuir binding model. […]
Affinity determination of anti-Axl antibody 10G5 was performed at 25° C. by surface plasmon resonance measurements using Biacore 3000 instrument (GE Healthcare). As a solid antigen-coated surface, a sensor chip CM5 with immobilized rhAxl-Fc chimera (R&D Systems, Cat. no. 154-AL) at density 190 RU was used.
For the kinetics measurements, different concentrations of anti-Axl antibodies (from 0.3 to 666.7 nM) in HBS-EP buffer (Biacore, Cat. no. BR-1001-88) were injected at flow rate of 30 μL/min with 3 min injection time followed by 5 min dissociation (buffer alone). After each cycle, the surface was regenerated by 30 sec injection of a regeneration solution (10 mM HCl, 1 M NaCl) at flow rate 50 μL/min.
The kinetic association (on-rate, kon) and dissociation (off-rate, koff) rates were calculated using BIAevaluation software and 1:1 Langmuir binding model. The equilibrium dissociation constant (KD) was calculated as the koff/kon ratio. The half-life (t1/2) of the formed antibody-antigen complexes was calculated as the ln 2/koff ratio. […]

[2] = target: T2, Tyro3 (rhTyro3/Dtk-Fc chimera) (Homo sapiens, UniProt Q06418); assay: Biacore binding analysis on immobilised human Tyro3; details: 10 μg/mL in HBS-EP, 25° C.
T2 construct: Soluble recombinant antigens corresponding to the extracellular domains of members of the human TAM receptor family; Fc; purchased R&D Systems 859-DK
T2 sequence (Q06418 41-429 limits assumed): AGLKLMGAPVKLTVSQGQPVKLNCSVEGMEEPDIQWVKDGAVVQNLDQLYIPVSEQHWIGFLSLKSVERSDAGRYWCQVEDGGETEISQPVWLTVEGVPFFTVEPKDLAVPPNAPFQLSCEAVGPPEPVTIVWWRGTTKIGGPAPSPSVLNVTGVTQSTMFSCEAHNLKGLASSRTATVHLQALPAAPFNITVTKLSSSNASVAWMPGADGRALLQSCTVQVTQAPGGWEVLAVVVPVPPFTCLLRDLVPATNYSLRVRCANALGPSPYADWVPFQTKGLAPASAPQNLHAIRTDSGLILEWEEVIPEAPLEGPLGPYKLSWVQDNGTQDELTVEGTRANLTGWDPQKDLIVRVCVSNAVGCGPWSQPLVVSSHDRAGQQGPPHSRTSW
Description: (§1) All binding experiments were performed using Biacore 3000 instrument (GE Healthcare) at 25° C. Soluble recombinant antigens corresponding to the extracellular domains of members of the human TAM receptor family, Axl (rhAxl-Fc chimera; R&D Systems, Cat. no. 154-AL), Mer (rhMer-Fc chimera; R&D Systems, Cat. no. 891-MR) and Tyro3 (rhTyro3/Dtk-Fc chimera; R&D Systems, Cat. no. 859-DK) were immobilized on the surface of CM5 sensor chip using amine coupling at the surface density of 393.0, 303.6 and 364.0 resonance units (RU), respectively. The Biacore run was performed in an automatic mode using Binding analysis wizard. Samples containing MAb 10G5 at concentration 10 μg/mL in HBS-EP buffer (GE Healthcare) were injected over the surfaces with immobilized antigens at flow rate of 30 μL/min for 3 min (association) followed by 5 min dissociation.
(§2) The binding experiments were performed using Biacore 3000 instrument (GE Healthcare) at 25° C. The soluble recombinant antigens corresponding to human Axl (rhAxl-Fc chimera; R&D Systems, Cat. no. 154-AL), mouse Axl (rmAxl-Fc chimera; R&D Systems, R&D Systems; Cat. no. 854-AX) and human Tyro3 (rhTyro3/Dtk-Fc chimera; R&D Systems, Cat. no. 859-DK) were immobilized on the surface of CM5 sensor chip using amine coupling at the surface density of 1,308.0, 2,115.9 and 1,429.0 RU, respectively. The Biacore runs were performed in an automatic mode using Binding analysis wizard.
(§3) The sample containing MAb 10G5 or recombinant mouse (rm) Axl-ligand Gas6 (R&D Systems, Cat. no. 986-GS/CF) at concentration 10 μg/mL in HBS-EP buffer (GE Healthcare) was injected over the surfaces with immobilized antigens at flow rate of 30 μL/min for 3 min (association) followed by 5 min dissociation.

[3] = target: T3, mouse Axl (rmAxl-Fc chimera; Mm-Axl-Fc) (Mus musculus, UniProt Q00993); assay: Biacore binding analysis on immobilised mouse Axl
T3 construct: The soluble recombinant antigens corresponding to human Axl (rhAxl-Fc chimera; R&D Systems, Cat. no; 154-AL), mouse Axl (rmAxl-Fc chimera; Fc; purchased R&D Systems 854-AX
Description: as §2, §3
Sensor chip with immobilised Axl: Hs-Axl-Fc (638.2 RU), Mm-Axl-Fc (334.5 RU), Rhe-Axl-Fc (350.2 RU)
All tests were performed in parallel on Hs-Axl-Fc, Mm-Axl-Fc and Rhe-Axl-Fc surfaces.

[4] = target: T1, human Axl (rhAxl-Fc chimera); assay: Biacore binding analysis on immobilised human Axl; details: 10 μg/mL in HBS-EP, 25° C.
Description: as §1, §2, §3
The sequence of Axl receptor from cynomolgus monkey (Macaca fascicularis; SEQ ID NO: 27) was retrieved from WO2009062690A1. Based on the sequence, recombinant extracellular domain of cyno-Axl was generated by transient expression in CHO cells as a fusion protein with human Fc. The recombinant cyno-Axl-Fc was purified to homogeneity using Protein A-Sepharose (GE Healthcare). The binding experiments were performed using Biacore 3000 instrument (GE Healthcare) at 25° C. The soluble recombinant antigens corresponding to human Axl (rhAxl-Fc chimera; R&D Systems, Cat. no. 154-AL) and cyno-Axl were immobilized on the surface of CM5 sensor chip using amine coupling at the surface density of 775 and 880 RU, respectively. The Biacore runs were performed in an automatic mode using Binding analysis wizard.
The sample containing MAb 10G5 or human Axl-specific MAb 5F11 (control) at concentration 10 μg/mL in HBS-EP buffer (GE Healthcare) was injected over the surfaces with immobilized antigens at flow rate of 30 μL/min for 3 min (association) followed by 5 min dissociation. […]

[5] = rhAxl immobilized on Biacore sensor chip, 25° C., 1:1 Langmuir binding model

T3 sequence (Q00993 19-445 limits assumed, change not shown): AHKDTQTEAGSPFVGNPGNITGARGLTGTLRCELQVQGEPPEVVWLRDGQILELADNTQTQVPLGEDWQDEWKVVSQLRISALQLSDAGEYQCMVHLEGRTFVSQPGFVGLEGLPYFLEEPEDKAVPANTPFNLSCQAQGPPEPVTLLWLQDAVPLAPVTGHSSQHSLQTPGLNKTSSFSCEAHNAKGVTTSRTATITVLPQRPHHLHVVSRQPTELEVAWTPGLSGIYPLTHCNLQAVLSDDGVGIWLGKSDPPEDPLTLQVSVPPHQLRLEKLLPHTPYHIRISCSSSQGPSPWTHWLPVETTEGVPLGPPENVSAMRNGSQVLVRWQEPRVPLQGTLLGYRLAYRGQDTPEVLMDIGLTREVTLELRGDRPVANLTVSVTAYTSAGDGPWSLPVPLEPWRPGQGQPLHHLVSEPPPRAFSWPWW

B1: H1L1: humanised 10G5 variant; presumably VH GH1 (SEQ ID NO: 1) with VL GL1 (SEQ ID NO: 3) (antibody, V domains shown)
VH: EVQLVQSGAGLVQPGGSVRLSCAASGYSFTDFYINWVRQAPGKGLEWIARIFPGGDNTYYNEKFKGRFTLSADTSSSTAYLQLNSLRAEDTAVYYCARRGLYYAMDYWGQGTLVTVSS
VL: DIQMTQSPSSLSASVGDRVTITCRSSQSLVHSNGIPYLHWYQQKPGKAPKLLIYRVSNRFSGVPSRFSGSGSGTDFTLTISSLQPEDFATYYCSQGTHVPPTFGQGTKVEIK
modifications: hu10G5 VH(GH1); hu10G5 VL(GL1)
Question: How did the “KD lower than that of the chimeric antibody” value ([1]; comparison referring to Table 3) turn out when B1 was run?
Answer: at least 30%

Question: And the “Off-rate (koff)” value [1, 5]?
Answer: 0.000161 s⁻¹

Question: And the “On-rate (kon)” value [1, 5]?
Answer: 1.54e+06 M⁻¹ s⁻¹

B2: mouse Gas6: recombinant mouse Axl-ligand Gas6 (R&D Systems) (protein)
chain: QCTPNPCDKKGTHICQDLMGNFFCVCTDGWGGRLCDKDVNECVQKNGGCSQVCHNKPGSFQCACHSGFSLASDGQTCQDIDECTDSDTCGDARCKNLPGSYSCLCDEGYTYSSKEKTCQDVDECQQDRCEQTCVNSPGSYTCHCDGRGGLKLSPDMDTCEDILPCVPFSMAKSVKSLYLGRMFSGTPVIRLRFKRLQPTRLLAEFDFRTFDPEGVLFFAGGRSDSTWIVLGLRAGRLELQLRYNGVGRITSSGPTINHGMWQTISVEELERNLVIKVNKDAVMKIAVAGELFQLERGLYHLNLTVGGIPFKESELVQPINPRLDGCMRSWNWLNGEDSAIQETVKANTKMQCFSVTERGSFFPGNGFATYRLNYTRTSLDVGTETTWEVKVVARIRPATDTGVLLALVGDDDVVPISVALVDYHSTKKLKKQLVVLAVEDVALALMEIKVCDSQEHTVTVSLREGEATLEVDGTKGQSEVSTAQLQERLDTLKTHLQGSVHTYVGGLPEVSVISAPVTAFYRGCMTLEVNGKILDLDTASYKHSDITSHSCPPVEHATP
Question: Which results are given for B2?
Answer: Binding to recombinant human Tyro3 [2]: somewhat weaker binding; Binding to recombinant human Tyro3 ([2]; listed as murine Gas 6): more weakly; Binding to mouse Axl [3]: strong binding; Binding to mouse Axl ([3]; listed as murine Gas 6): binds strongly; Binding to human Axl [4]: strong binding; Binding to human Axl ([4]; listed as murine Gas 6): binds strongly
